Assay results published in PMC4220974, “Effect of the L499M mutation of the ascomycetous Botrytis aclada laccase on redox potential and catalytic properties” (Acta Crystallographica Section D: Biological Crystallography, 2014).

What was measured:
Test in all cases: purified protein
Format in all cases: biochemical, Botrytis aclada
[1] = tested on: CCn1c(=NN=c2sc3cc(S(=O)(=O)O)ccc3n2CC)sc2cc(S(=O)(=O)O)ccc21; conditions: pH 4.0, 100 mM citrate-phosphate, 30 °C, air-saturated, µ and ± signs lost in the table text (header reads M), apparent Km, also measured at pH 3, 5, 6
COc1cccc(OC)c1O = conditions: pH 4.0, 100 mM citrate-phosphate, 30 °C, air-saturated, µ and ± signs lost in the table text (header reads M), apparent Km, also measured at pH 3, 5, 6
purified protein [2] = substrate: CCn1c(=NN=c2sc3cc(S(=O)(=O)O)ccc3n2CC)sc2cc(S(=O)(=O)O)ccc21; conditions: pH 4.0, 100 mM citrate-phosphate, 30 °C, air-saturated, µ and ± signs lost in the table text (header reads M), apparent Km, also measured at pH 3, 5, 6; remark: listed apart in the source
purified protein [3] = substrate: COc1cccc(OC)c1O; conditions: pH 4.0, 100 mM citrate-phosphate, 30 °C, air-saturated, apparent Km, also measured at pH 3, 5, 6

BaL (Botrytis aclada laccase) (Botrytis aclada; L536M)
Km [1]: 19.3 ± 1.0 µM
Km (COc1cccc(OC)c1O): 80.8 ± 2.7 µM

B1: BaL (Botrytis aclada laccase) (Botrytis aclada) (protein)
chain: SCANSATSRSCWGEYSIDTNWYDVTPTGVTREYWLSVENSTITPDGYTRSAMTFNGTVPGPAIIADWGDNLIIHVTNNLEHNGTSIHWHGIRQLGSLEYDGVPGVTQCPIAPGDTLTYKFQVTQYGTTWYHSHFSLQYGDGLFGPLIINGPATADYDEDVGVIFLQDWAHESVFEIWDTARLGAPPALENTLMNGTNTFDCSASTDPNCVGGGKKFELTFVEGTKYRLRLINVGIDSHFEFAIDNHTLTVIANDLVPIVPYTTDTLLIGIGQRYDVIVEANAAADNYWIRGNWGTTCSTNNEAANATGILRYDSSSIANPTSVGTTPRGTCEDEPVASLVPHLALDVGGYSLVDEQVSSAFTNYFTWTINSSSLLLDWSSPTTLKIFNNETIFPTEYNVVALEQTNANEEWVVYVIEDLTGFGIWHPIHLHGHDFFIVAQETDVFNSDESPAKFNLVNPPRRDVAALPGNGYLAIAFKLDNPGSWLLHCHIAWHASEGLAMQFVESQSSIAVKMTDTAIFEDTCANWNAYTPTQLFAEDDSGI
notes: full-length cDNA expressed in secreted form in Pichia pastoris X33; 543 residues; kinetics on glycosylated enzyme
Km (purified protein [2]): 14.0 ± 1.0 µM
Km (purified protein [3]): 8.3 ± 0.7 µM
